Holding throughout (test): ITC
Background: Isothermal titration calorimetry measures the heat released or taken up as one component is titrated into another.

In test [1] the target is Escherichia coli RelA, full-length (Escherichia coli (K-12 entry; strain …, UniProt P0AG20).
Test [2] has as its target Rel from Chlorobaculum tepidum, full-length (Chlorobaculum tepidum (TLS entry; …, UniProt Q8KC80).
Test [3] deals with RelCt^R215E (Chlorobaculum tepidum).

Here are results for five molecules from paper doi:10.1101/2025.08.07.669093 (bioRxiv, 2025).

Escherichia coli RelA, full-length (Escherichia coli, sequence (P0AG20 whole entry): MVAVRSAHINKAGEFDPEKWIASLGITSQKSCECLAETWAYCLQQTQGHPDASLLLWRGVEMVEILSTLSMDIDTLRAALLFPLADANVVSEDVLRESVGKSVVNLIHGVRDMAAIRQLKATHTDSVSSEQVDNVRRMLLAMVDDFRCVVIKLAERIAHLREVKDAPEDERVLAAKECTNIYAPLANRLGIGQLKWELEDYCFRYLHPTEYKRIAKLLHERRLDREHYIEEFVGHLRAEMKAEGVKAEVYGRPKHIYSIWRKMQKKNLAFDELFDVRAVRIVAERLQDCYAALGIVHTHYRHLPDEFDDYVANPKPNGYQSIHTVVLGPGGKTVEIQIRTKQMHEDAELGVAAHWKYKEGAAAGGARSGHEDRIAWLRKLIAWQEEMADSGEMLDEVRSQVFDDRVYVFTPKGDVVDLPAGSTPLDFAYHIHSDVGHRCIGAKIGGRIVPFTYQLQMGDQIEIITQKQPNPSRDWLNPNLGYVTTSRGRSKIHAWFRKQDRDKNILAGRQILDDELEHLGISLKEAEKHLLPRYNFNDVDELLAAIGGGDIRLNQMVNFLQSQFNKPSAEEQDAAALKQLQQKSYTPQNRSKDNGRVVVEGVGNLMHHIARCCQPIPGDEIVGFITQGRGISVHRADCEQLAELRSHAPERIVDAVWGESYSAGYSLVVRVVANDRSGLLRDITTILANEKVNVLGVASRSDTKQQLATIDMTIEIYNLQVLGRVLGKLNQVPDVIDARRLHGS

B1: Nb94 (VHH)
VHH: QVQLVESGGGMVQPGGSLRLSCAASGFTFSTYSMGWFRQAPGQEREFVAAISWSGDSAYYADSVKGRFTISRDNAKNTVYLQMNSLKFEDTAVYYCNADLDGLGYDYWGQGTQVTVS
As a reminder, the Kd is the equilibrium constant for the complex coming apart. In test [1], B1 registered a Kd of 13 nM. In other words, the double-digit nanomolar range.

B2: Nb585 (VHH)
VHH: QVQLQESGGGLVQAGGSLRLSCAASGFTFEDYTIGWFRQAPGKEREGVSLISNSDGFTSYADSVKGQFTISSENAKNTVYLQMDNLKPEDTAVYYCAATEVLAHLMWRPSNWGYWGQGTQVTV
In the case of B2, the Kd in test [2] was 21 nM. The molecule further yielded a fold drop in affinity against RelCt in test [3] of 28 fold.

B3: Nb96 (VHH)
VHH: QVQLQESGGGLVQAGGSLRLSCAASGSIFDIKVMAWYRQAPGKSRELVAVHASADDSTTYEKSVKGRFTISRDNAKNTVYLQMNSLKPEDTAIYYCNRIPNFTHWGQGTQVTVS
Consider B3, for which the dissociation constant Kd in test [1] was 157 nM.

B4: Nb120 (VHH)
VHH: QVQLVESGGGLVQPGGSLRLSCAASGTIRSLNAMAWYRQAPGKERELAARISSGGTTTYADSVKGRFTISRDNAKNTLYLQMNSLKPEDTAVYYCKANRFSTYGYRDDIWGQGTQVTVS
Regarding B4, in test [1], the binding result is on record as “no binding”.

B5: Nb898 (VHH)
VHH: QVQLQESGGGLVQAGGSLRLSCAASGSIESINAMAWYRQAPGKPRELVAVIAKSDGSTTYAVPVKGRFTISRDDAKNTVYLQMNSLKPEDTAIYYCNKIPNFTYWGQGTQVTVSS
In test [2], B5 gave an equilibrium dissociation constant (Kd) of 186 nM. In other words, the sub-micromolar range.
